Results from the supplement of paper PMC7877785.
± gives the uncertainty stated by the source.

Assay: self-splicing fitness, log relative to wild type (ln ratio); higher = more splicing; Tetrahymena group I intron in knt gene, E. coli kanamycin selection, DiMSum; sequences stand for … in CUCUCU…GGAGGGAAAAGUUAUCAGGCAUGCACCUGGUAGCUAGUCUUUAAACCAAUAGAUUGCAUCGGUUUAAAAGGCAAGACCGUCAAAUUGCGGGAAAGGGGUCAACAGCCGUUCAGUACCAAGUCUCAGGGGAAACUUUGAGAUGGCCUUGCAAAGGGUAUGGUAAUAAGCUGACGGACAUGGUCCUAACCACGCAGCCAAGUCCUAAGUCAACAGAUCUUCUGUUGAUAUGGAUGCAGUUCACAGACUAAAUGUCGGUCGGGGAAGAUGUAUUCUUCUCAUAAGAUAUAGUCGGACCUCUCCUUAAUGGGAGCUAGCGGAUGAAGUGAUGCAACACUGGAGCCGCUGGGAACUAAUUUGUAUGCGAAAGUAUAUUGAUUAGUUUUGGAGUACUCGUGGUCG
Method in brief: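 DiMSum derived fitness as the error-weighted combination of fold changes across replicates, kanamycin versus no kanamycin, normalised to wild type. E. coli BL21(DE3) held the library, which randomised all eight P1ex-region intron nucleotides within the knt kanamycin-resistance gene on pET-22b(+). Six replicate transformations grew overnight at 37°C or 30°C on LB agar with or without 25 μg/mL kanamycin, also containing 100 μg/mL carbenicillin, 50 μM IPTG and 0.2% rhamnose, and pooled colonies were amplicon-sequenced on an Illumina HiSeq 2500.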

| Sequence | self-splicing fitness (ln) (30 °C) | self-splicing fitness (ln) (37 °C) |
| --- | --- | --- |
| CCGCAGCAAUAUUACGGACG | -2.13 ± 0.1 | -0.204 ± 0.11 |
| CCGCAGCAAUAUUACGGAUU | -3.8 ± 0.14 | -2.75 ± 0.16 |
| CCGCAGCAAUAUUACGGCCC | -3.3 ± 0.48 | – |
| CCGCAGCAAUAUUACGGCCU | -3.67 ± 0.42 | -2.88 ± 0.24 |
| CCGCAGCAAUAUUACGGCUC | -4.29 ± 0.21 | -1.34 ± 0.12 |
| CCGCAGCAAUAUUACGGUGG | -3.11 ± 0.12 | -3.48 ± 0.2 |
| CCGCAGCAAUAUUACGUAAA | -4.2 ± 0.25 | -2.62 ± 0.2 |
| CCGCAGCAAUAUUACGUAAG | 0.385 ± 0.056 | -0.112 ± 0.062 |
| CCGCAGCAAUAUUACGUCUA | -1.79 ± 0.32 | -3 ± 0.3 |
| CCGCAGCAAUAUUACGUGAU | -2.62 ± 0.15 | -2.31 ± 0.2 |
| CCGCAGCAAUAUUACGUGCC | -3.67 ± 0.24 | -3.75 ± 0.3 |
| CCGCAGCAAUAUUACGUGUG | -3.24 ± 0.11 | -1.79 ± 0.094 |
| CCGCAGCAAUAUUACGUUAG | -1.11 ± 0.064 | -0.553 ± 0.076 |
| CCGCAGCAAUAUUACGUUUA | -3.22 ± 0.18 | -2.35 ± 0.14 |
| CCGGAGCAAUAUUACGAAAA | – | -2.99 ± 0.48 |
| CCGGAGCAAUAUUACGAAUA | – | -2.16 ± 0.4 |
| CCGGAGCAAUAUUACGAAUU | – | -3.26 ± 0.3 |
| CCGGAGCAAUAUUACGACGC | -3.23 ± 0.22 | -2.22 ± 0.32 |
| CCGGAGCAAUAUUACGACUA | -2.18 ± 0.45 | -1.88 ± 0.27 |
| CCGGAGCAAUAUUACGACUU | -2.23 ± 0.24 | -1.86 ± 0.48 |
| CCGGAGCAAUAUUACGAGCC | -3.09 ± 0.31 | -2.1 ± 0.42 |
| CCGGAGCAAUAUUACGAGCU | -2.94 ± 0.35 | -1.84 ± 0.49 |
| CCGGAGCAAUAUUACGAGUG | -1.61 ± 0.076 | -0.14 ± 0.084 |
| CCGGAGCAAUAUUACGAUGG | -3.6 ± 0.48 | -3 ± 0.43 |
| CCGGAGCAAUAUUACGAUUG | -0.529 ± 0.094 | 0.132 ± 0.14 |

| Sequence | self-splicing fitness (ln) (30 °C) | self-splicing fitness (ln) (37 °C) |
| --- | --- | --- |
| CCGGAGCAAUAUUACGCGCC | -1.89 ± 0.32 | – |
| CCGGAGCAAUAUUACGCUCA | -3.12 ± 0.3 | -2.71 ± 0.41 |
| CCGGAGCAAUAUUACGCUUG | -2.67 ± 0.24 | -2.22 ± 0.27 |
| CCGGAGCAAUAUUACGGAAA | -1.87 ± 0.18 | -2.41 ± 0.3 |
| CCGGAGCAAUAUUACGGAAC | -3.29 ± 0.47 | -1.67 ± 0.36 |
| CCGGAGCAAUAUUACGGAAG | -2.73 ± 0.11 | -2.21 ± 0.14 |
| CCGGAGCAAUAUUACGGAUU | – | -1.82 ± 0.2 |
| CCGGAGCAAUAUUACGGGCU | -3.52 ± 0.35 | -3.75 ± 0.42 |
| CCGGAGCAAUAUUACGGUAA | -2.12 ± 0.25 | -3.21 ± 0.4 |
| CCGGAGCAAUAUUACGUACU | -4.13 ± 0.44 | -3.36 ± 0.42 |
| CCGGAGCAAUAUUACGUAGA | -3.6 ± 0.19 | -2.66 ± 0.2 |
| CCGGAGCAAUAUUACGUCGC | -2.63 ± 0.32 | -2.43 ± 0.41 |
| CCGGAGCAAUAUUACGUGAA | – | -1.86 ± 0.31 |
| CCGGAGCAAUAUUACGUGCU | -2.99 ± 0.17 | -2.85 ± 0.24 |
| CCGGAGCAAUAUUACGUGGU | -3.01 ± 0.2 | 0.658 ± 0.18 |
| CCGGAGCAAUAUUACGUGUG | -1.68 ± 0.039 | -1.05 ± 0.061 |
| CCGUAGCAAUAUUACGAAGG | -3.22 ± 0.39 | – |
| CCGUAGCAAUAUUACGAAGU | -3.05 ± 0.21 | -1.46 ± 0.31 |
| CCGUAGCAAUAUUACGACUU | -2.98 ± 0.37 | -2.67 ± 0.41 |
| CCGUAGCAAUAUUACGAGCC | – | -1.01 ± 0.42 |
| CCGUAGCAAUAUUACGAGCU | -3.28 ± 0.22 | -3.35 ± 0.24 |
| CCGUAGCAAUAUUACGAUUG | -0.486 ± 0.064 | -0.0224 ± 0.082 |
| CCGUAGCAAUAUUACGCAAU | -3.31 ± 0.24 | -2.05 ± 0.22 |
| CCGUAGCAAUAUUACGCGCA | -3.09 ± 0.3 | -1.69 ± 0.4 |
| CCGUAGCAAUAUUACGCUGC | -2.07 ± 0.47 | -1.49 ± 0.45 |

| Sequence | self-splicing fitness (ln) (30 °C) | self-splicing fitness (ln) (37 °C) |
| --- | --- | --- |
| CCGUAGCAAUAUUACGCUUU | -3.52 ± 0.43 | -2.23 ± 0.49 |
| CCGUAGCAAUAUUACGGCGG | -4.06 ± 0.3 | -2.97 ± 0.26 |
| CCGUAGCAAUAUUACGGGCC | -3.55 ± 0.25 | -2.83 ± 0.32 |
| CCGUAGCAAUAUUACGGUCU | -3.01 ± 0.21 | -2.2 ± 0.18 |
| CCGUAGCAAUAUUACGGUUC | -2.21 ± 0.2 | -2.04 ± 0.26 |
| CCGUAGCAAUAUUACGGUUG | -3.89 ± 0.24 | -1.73 ± 0.19 |
| CCGUAGCAAUAUUACGUAAC | -4.68 ± 0.46 | -0.709 ± 0.24 |
| CCGUAGCAAUAUUACGUACG | -2.13 ± 0.18 | -1.83 ± 0.21 |
| CCGUAGCAAUAUUACGUAUA | -2.74 ± 0.18 | -2.72 ± 0.27 |
| CCGUAGCAAUAUUACGUCAG | -1.26 ± 0.077 | -1.55 ± 0.089 |
| CCGUAGCAAUAUUACGUCUA | -2.84 ± 0.16 | -1.92 ± 0.18 |
| CCGUAGCAAUAUUACGUGAC | -2.36 ± 0.15 | – |
| CCGUAGCAAUAUUACGUGGC | -3.76 ± 0.26 | -2.73 ± 0.26 |
| CCGUAGCAAUAUUACGUUGU | -3.87 ± 0.16 | -2.3 ± 0.18 |
| CCUAAGCAAUAUUACGAACU | -3.44 ± 0.48 | -1.99 ± 0.22 |
| CCUAAGCAAUAUUACGAAGA | -1.82 ± 0.22 | -1.82 ± 0.22 |
| CCUAAGCAAUAUUACGAUUC | -3.13 ± 0.29 | -2.6 ± 0.41 |
| CCUAAGCAAUAUUACGCACA | -4.21 ± 0.46 | -1.2 ± 0.35 |
| CCUAAGCAAUAUUACGCAGA | – | -2.34 ± 0.37 |
| CCUAAGCAAUAUUACGCCAA | -2.22 ± 0.24 | -3.27 ± 0.46 |
| CCUAAGCAAUAUUACGCCCA | -3.67 ± 0.33 | -2.02 ± 0.33 |
| CCUAAGCAAUAUUACGCCUU | -3.22 ± 0.21 | -2.79 ± 0.26 |
| CCUAAGCAAUAUUACGCGAG | -4.48 ± 0.25 | -3.56 ± 0.23 |
| CCUAAGCAAUAUUACGCUUA | -3.09 ± 0.18 | -1.97 ± 0.29 |
| CCUAAGCAAUAUUACGGAAU | -3.6 ± 0.25 | -2.48 ± 0.19 |

| Sequence | self-splicing fitness (ln) (30 °C) | self-splicing fitness (ln) (37 °C) |
| --- | --- | --- |
| CCUAAGCAAUAUUACGGAGC | -2.66 ± 0.35 | – |
| CCUAAGCAAUAUUACGGAUG | -2.08 ± 0.082 | -1.16 ± 0.085 |
| CCUAAGCAAUAUUACGGCCG | -0.351 ± 0.18 | -0.367 ± 0.22 |
| CCUAAGCAAUAUUACGGCUG | -3.49 ± 0.21 | -2.47 ± 0.3 |
| CCUAAGCAAUAUUACGGGUU | -3.52 ± 0.2 | -2.84 ± 0.2 |
| CCUAAGCAAUAUUACGGUCC | – | -2.28 ± 0.45 |
| CCUAAGCAAUAUUACGUCCG | -1.34 ± 0.11 | -0.638 ± 0.11 |
| CCUAAGCAAUAUUACGUUGU | -3.37 ± 0.16 | -2.15 ± 0.15 |
| CCUCAGCAAUAUUACGACAA | -1.92 ± 0.17 | -2.31 ± 0.25 |
| CCUCAGCAAUAUUACGAGCA | -3.04 ± 0.26 | -2.87 ± 0.25 |
| CCUCAGCAAUAUUACGAUUC | -3.88 ± 0.43 | -2.44 ± 0.49 |
| CCUCAGCAAUAUUACGCACA | -3.09 ± 0.48 | -2.02 ± 0.26 |
| CCUCAGCAAUAUUACGCCAG | -3.22 ± 0.16 | -0.883 ± 0.13 |
| CCUCAGCAAUAUUACGCCCC | – | -1.39 ± 0.35 |
| CCUCAGCAAUAUUACGCGGA | -2.68 ± 0.22 | -3.28 ± 0.26 |
| CCUCAGCAAUAUUACGCGGU | -3.37 ± 0.19 | -2.98 ± 0.33 |
| CCUCAGCAAUAUUACGCUAG | -4.45 ± 0.38 | -1.04 ± 0.22 |
| CCUCAGCAAUAUUACGGCAC | -3.55 ± 0.15 | -2 ± 0.17 |
| CCUCAGCAAUAUUACGGCCG | -2.11 ± 0.1 | -0.442 ± 0.11 |
| CCUCAGCAAUAUUACGGCGG | -3.33 ± 0.15 | -3.35 ± 0.35 |
| CCUCAGCAAUAUUACGGCUU | -1.94 ± 0.16 | -2.28 ± 0.21 |
| CCUCAGCAAUAUUACGGGGG | -4.13 ± 0.28 | -2.9 ± 0.23 |
| CCUCAGCAAUAUUACGUAUU | -4.06 ± 0.24 | -2.61 ± 0.21 |
| CCUCAGCAAUAUUACGUCAU | -3.03 ± 0.13 | -1.77 ± 0.18 |
